In the series the test system is Bacillus subtilis DB104 (SP-AmyQ fusion secretion). The series is described as follows: AmyQ secretion efficiency, weighted average sort bin (1 = best secretion, 10 = worst) (bin number (weighted average, 1-10)); higher = lower secretion efficiency. The essentials:
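With fluorescein-starch as substrate, a B. subtilis DB104 library expressing mature AmyQ fused to designed signal peptides (integrated at amyE) was encapsulated at about 0.3 cells per ~65 nL alginate bead. After about 13 h at room temperature, beads were nile red stained, and occupied beads were sorted by large-particle flow cytometry into 10 equally populated bins by green/red fluorescence ratio. Illumina sequencing of the amplicons in each bin was used to calculate the secretion score, which is the read-frequency-weighted average bin number, normalised to beads per bin, with low-abundance sequences left out.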

Where “and” joins values, the source holds several entries; their conditions need not be identical. Equal entries are not always repeated.

As for MKRSISIFITCLLITLLTMGGMIASPASAAGT, the AmyQ secretion efficiency was 3.79 and 2.48 and 2.42.

MKRSISIFITCLLITLLTMGGMIASPASAEDE showed an AmyQ secretion efficiency of 2.08.

MKRSISIFITCLLITLLTMGGMIASPASEAGT had an AmyQ secretion efficiency of 4.1.

In turn, MKRSISIFITCLLITLLTMGGMIASPASIAGT showed an AmyQ secretion efficiency of 4.57. To MKRSISIFITCLLITLLTMGGMIASPASTAGT belongs 4.46; to MKRSISIFITCLLITLLTMGGMIASPRSAAGT, 2.42; to MKRSISIFITCLLITLLTMGGMIASPTSAAGT, 2.97. The sequence MKRSISKRKRCKKITLLTMGGMIASPASAAGT returned an AmyQ secretion efficiency of 6.02. In the case of MKRSISRKITCLLITLLTMGGMIASPASAAGT it was 2.01.

In the case of MKRSISRRRKCLLITLLTMGGMIASPASAAGT, the AmyQ secretion efficiency turned out to be 2.97.

As for MKRSMLFILVLSFLSIIVAYPIQTNASPM, the AmyQ secretion efficiency stood at 2.84. Turning to MKRSSGKQLIGIMLLTFAPSAFAKQD, the AmyQ secretion efficiency amounted to 3.5. In the case of MKRSYVSLRVWMVFLMNWVTPDRKTAAAAVY it was 6.51; in that of MKRTLPLLIVCLAFSSFSASARAASE, 2.25. For MKRTRIPMYLALGAALTIAPLSFASAEEN, the AmyQ secretion efficiency came to 3.6.

As for MKRTSTAYLLLGILCSAAVFLIGAPSRALGAEV, the AmyQ secretion efficiency stood at 2.85. In the case of MKRTTNLTMLCLWFTVFSLFLVLLPGKALGAVD it was 4.04; in that of MKRTWNGCGQGQLSVLLVAGSVPFHAEAKKP, 2.05; in that of MKRTWNRCGSSYKTYYLVAGSVPFHAEAKKP, 6.5. As for MKRTWNRQRKVCLTALLSVLLVAGSVPFHAEAKKP, the AmyQ secretion efficiency was determined as 2.09. In the case of MKRTWNTCLTALLSVLLVAGSVPFHAEAKKP it was 2.37; in that of MKRTWNTTTVCLTALLSVLLVAGSVPFHAEAKKP, 2.17.

The sequence MKRTWNVCKRALLSVLLVAGSVPFHAEAKKP gave an AmyQ secretion efficiency of 3.1. In the case of MKRTWNVCLIALLMVLLVAIFVTSPFHAEAKKP it was 2.11; in that of MKRTWNVCLTALLSVLLVAGSVDDHAEAKKP, 1.97.

In turn, MKRTWNVCLTALLSVLLVAGSVGFVAEAKKP yielded an AmyQ secretion efficiency of 3.4. To MKRTWNVCLTALLSVLLVAGSVKRKKHAEAKKP belongs 7.43; to MKRTWNVCLTALLSVLLVAGSVPFHAEAAKK, 2.52. To MKRTWNVCLTALLSVLLVAGSVPFHAEAAPD belongs 2.13; to MKRTWNVCLTALLSVLLVAGSVPFHAEAAPK, 2.29; to MKRTWNVCLTALLSVLLVAGSVPFHAEAKKK, 2.67. To MKRTWNVCLTALLSVLLVAGSVPFHGEAKKP belongs 2.79; to MKRTWNVCLTALLSVLLVAGSVPFHMEAKKP, 2.19.

In the case of MKRTWNVCLTALLSVLLVAGSVPFHVEAKKP, the AmyQ secretion efficiency was 2. In the case of MKRTWNVCLTALLSVLLVAGSVPSHAEAKKP it was 1.85. The sequence MKRTWNVCLTALLSVLLVAGSVRRRRKRKHAEAKKP showed an AmyQ secretion efficiency of 8.2. To MKRTWNVCLTALLSVLLVAGSVTFHAEAKKP belongs 2.82; to MKRTWNVCLTALLSVLLVAGSVTLVAAPFHAEAKKP, 2.5; to MKRTWNVCLTALLSVLLVAGSVVPFHAEAKKP, 1.9. MKRTWNVCLTALLSVLLVAPFHAEAKKP showed an AmyQ secretion efficiency of 4.3. Turning to MKRTWNVCLTALLSVPFHAEAKKP, the AmyQ secretion efficiency stood at 6.8.

As to MKRVCLTALLSVLLVAGSVPFHAEAKKP, the AmyQ secretion efficiency was 2.1. Take MKRVLTGSVLSLGLLVSASPAFATSP: the AmyQ secretion efficiency came to 1.56. In the case of MKRWMRKTLVVLFTIVTFGLVSPPAALMADKP it was 2.03; in that of MKRYKQRLRVWMVFLMNWVTPDRKTAAAAVY, 6.82; in that of MKRYRQKCLLLVTIMFLGVLFGMQQANHG, 5.69.

Turning to MKRYYVRMTLPLLIVCLAFSSFSASARAASE, the AmyQ secretion efficiency amounted to 2.74.

Turning to MKSAKSVSALTPSTTLAITAKAKEL, the AmyQ secretion efficiency is 6.91.

Turning to MKSCKQKQVCSLAAILLLIPSVSFAADS, the AmyQ secretion efficiency was 6.15. Turning to MKSCKQLIVCSLAAILLLDPQPSFAADS, the AmyQ secretion efficiency was found to be 4.16.

On to MKSCKQLIVCSLAAILLLIPSVAFAADS, for which the AmyQ secretion efficiency turned out to be 2.83. In the case of MKSCKQLIVCSLAAILLLIPSVSFAADD it was 2.66; in that of MKSCKQLIVCSLAAILLLIPSVSFAAPD, 2.43; in that of MKSCKQLIVCSLAAILLLIPSVSFAAPR, 1.96.

In turn, MKSCKQLIVCSLAAILLLIPSVSFAKRK displayed an AmyQ secretion efficiency of 2.42. In the case of MKSCKQLIVCSLAAILLLIPSVSFGADS it was 3.57; in that of MKSCKQLIVCSLAAILLLIPSVSFSADS, 4.65. MKSCKQLIVCSLAAILLLIPSVSFSTSTGASSFAADS came in with an AmyQ secretion efficiency of 6.07.

For MKSCKQLIVCSLAAILLLIPSVWFAADS, the AmyQ secretion efficiency came to 4.55. Consider MKSCKQLIVCSLAAILLLKRKKKRSFAADS, for which the AmyQ secretion efficiency came to 7.68. With MKSCKQLIVCSLAAILLLLSLTFIPSVSFAADS, the AmyQ secretion efficiency came to 3.91.

For MKSCKQLIVCSLAAILLLPPEVSFAADS, the AmyQ secretion efficiency stood at 2.83.

Regarding MKSCKQLIVCSLAAILLLRRKVSFAADS, the AmyQ secretion efficiency was determined as 7.65. MKSCKQLRRCKRRRILLLIPSVSFAADS had an AmyQ secretion efficiency of 7.57. MKSCKQYKRCQYSSILLLIPSVSFAADS had an AmyQ secretion efficiency of 7.62. To MKSKGSIMACKKKKSFTITTFINTETISAFSN belongs 7.29; to MKSKGSIMACKRLFSFTITTFINTETISAFSN, 6.73. To MKSKGSIMACLILFLFMIFTFINTETISAFSN belongs 5.32; to MKSKGSIMACLILFSFTITDEINTETISAFSN, 6.09; to MKSKGSIMACLILFSFTITEDEEEETISAFSN, 6.65. On to MKSKGSIMACLILFSFTITEISAFSN, for which the AmyQ secretion efficiency is 6.82. Regarding MKSKGSIMACLILFSFTITGDPNTETISAFSN, the AmyQ secretion efficiency stood at 4.93. Regarding “MKSKGSIMACLILFSFTITIILVTLIIVATFINTETISAFSN”, the AmyQ secretion efficiency was found to be 6.84.

Sequence MKSKGSIMACLILFSFTITRKKRKKTISAFSN came in with an AmyQ secretion efficiency of 7.38. With MKSKGSIMACLILFSFTITSTVSATTFINTETISAFSN, the AmyQ secretion efficiency was 6.02. The sequence MKSKGSIMACLILFSFTITTFIAFITISAFSN came in with an AmyQ secretion efficiency of 5.09. In the case of MKSKGSIMACLILFSFTITTFINEISAFSN it was 6.8. On to MKSKGSIMACLILFSFTITTFINTETASAFSN, for which the AmyQ secretion efficiency stood at 4.22. For the sequence MKSKGSIMACLILFSFTITTFINTETCSAFSN, the AmyQ secretion efficiency was determined as 4.49. MKSKGSIMACLILFSFTITTFINTETESAFSN: the AmyQ secretion efficiency turned out to be 7.01.

Sequence MKSKGSIMACLILFSFTITTFINTETFSAFSN came in with an AmyQ secretion efficiency of 7.43. To MKSKGSIMACLILFSFTITTFINTETGSAFSN belongs 5.58; to MKSKGSIMACLILFSFTITTFINTETGSISAFSN, 5.66. In the case of MKSKGSIMACLILFSFTITTFINTETHSAFSN it was 7.73. To MKSKGSIMACLILFSFTITTFINTETISAEED belongs 4.14; to MKSKGSIMACLILFSFTITTFINTETISAFRR, 6.09. Consider MKSKGSIMACLILFSFTITTFINTETISAFSD, for which the AmyQ secretion efficiency is 6.02.

With MKSKGSIMACLILFSFTITTFINTETISAFSR, the AmyQ secretion efficiency stood at 3.97. On to MKSKGSIMACLILFSFTITTFINTETISCFSN, for which the AmyQ secretion efficiency was found to be 7.73.

On to MKSKGSIMACLILFSFTITTFINTETISDFSN, for which the AmyQ secretion efficiency was determined as 6.98.

In the case of MKSKGSIMACLILFSFTITTFINTETISEFSN, the AmyQ secretion efficiency was determined as 7.72.

Take MKSKGSIMACLILFSFTITTFINTETISFFSN: the AmyQ secretion efficiency stood at 6.76. To MKSKGSIMACLILFSFTITTFINTETISGFSN belongs 6.11; to MKSKGSIMACLILFSFTITTFINTETISHFSN, 7.54; to MKSKGSIMACLILFSFTITTFINTETISKFSN, 7.47. To MKSKGSIMACLILFSFTITTFINTETISLFSN belongs 7.29; to MKSKGSIMACLILFSFTITTFINTETISMFSN, 7.38; to MKSKGSIMACLILFSFTITTFINTETISNFSN, 7.44. To MKSKGSIMACLILFSFTITTFINTETISPFSN belongs 7.51; to MKSKGSIMACLILFSFTITTFINTETISQFSN, 7.33; to MKSKGSIMACLILFSFTITTFINTETISRFSN, 8.63. As for MKSKGSIMACLILFSFTITTFINTETISTFSN, the AmyQ secretion efficiency stood at 7.54. To MKSKGSIMACLILFSFTITTFINTETISVFSN belongs 7.71; to MKSKGSIMACLILFSFTITTFINTETISYFSN, 7.41; to MKSKGSIMACLILFSFTITTFINTETKSAFSN, 6.7. In the case of MKSKGSIMACLILFSFTITTFINTETLSAFSN it was 6.34.
